Data taken from article PMC8944867.

Biological target: HOIP UBA-RBR-LDD/HOIL-1L UBL complex (human) (UniProt Q96EP0)
Test: ITC

Chain of HOIP UBA-RBR-LDD/HOIL-1L UBL complex (human) (Q96EP0 whole entry, chain 1 of 2): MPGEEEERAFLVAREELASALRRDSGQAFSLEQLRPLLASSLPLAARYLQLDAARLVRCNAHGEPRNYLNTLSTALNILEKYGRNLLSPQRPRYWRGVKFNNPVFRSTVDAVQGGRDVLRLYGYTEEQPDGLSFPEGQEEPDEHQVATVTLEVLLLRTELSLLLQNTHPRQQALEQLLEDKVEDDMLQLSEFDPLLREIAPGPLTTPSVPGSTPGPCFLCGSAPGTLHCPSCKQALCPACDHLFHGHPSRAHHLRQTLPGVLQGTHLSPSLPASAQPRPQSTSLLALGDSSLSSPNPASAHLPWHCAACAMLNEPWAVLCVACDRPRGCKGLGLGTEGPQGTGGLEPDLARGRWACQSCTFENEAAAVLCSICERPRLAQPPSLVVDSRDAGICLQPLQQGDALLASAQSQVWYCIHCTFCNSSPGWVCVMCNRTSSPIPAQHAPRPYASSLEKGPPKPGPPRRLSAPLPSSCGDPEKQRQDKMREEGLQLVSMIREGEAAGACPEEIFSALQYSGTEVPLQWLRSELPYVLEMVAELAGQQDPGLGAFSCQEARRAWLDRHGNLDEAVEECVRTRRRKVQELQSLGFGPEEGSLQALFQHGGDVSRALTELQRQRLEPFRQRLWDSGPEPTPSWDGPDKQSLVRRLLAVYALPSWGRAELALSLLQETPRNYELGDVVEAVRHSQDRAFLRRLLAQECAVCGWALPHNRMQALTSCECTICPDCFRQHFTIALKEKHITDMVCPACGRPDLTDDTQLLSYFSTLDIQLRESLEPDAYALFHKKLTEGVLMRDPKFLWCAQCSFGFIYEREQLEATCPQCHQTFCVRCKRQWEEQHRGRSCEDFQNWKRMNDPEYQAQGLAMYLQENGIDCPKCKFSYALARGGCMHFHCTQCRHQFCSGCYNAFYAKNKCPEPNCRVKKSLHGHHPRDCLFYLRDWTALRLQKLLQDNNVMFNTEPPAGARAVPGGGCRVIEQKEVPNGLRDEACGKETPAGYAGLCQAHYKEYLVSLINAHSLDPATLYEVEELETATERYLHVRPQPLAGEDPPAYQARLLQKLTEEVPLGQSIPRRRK
Chain of HOIP UBA-RBR-LDD/HOIL-1L UBL complex (human) (Q9BYM8 53-135, chain 2 of 2, further chain): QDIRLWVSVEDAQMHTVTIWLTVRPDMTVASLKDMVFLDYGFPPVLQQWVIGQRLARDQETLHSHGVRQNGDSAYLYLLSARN

IpaH1.4 LRR domain (from UniProt A0A0H2USG1 38-283) (domain or fragment)
Kd: 2300 nM
